Test results taken from patent publication US20230287598A1 (TAURUS BIOSCIENCES, published 2023).
Substitutions are numbered along the chain they refer to. Names and notes keep the numbering of the source. Where two headings read alike, the source gives them in different places.

T1: CXCR1 (UniProt P25024 1-350, limits assumed)
T1 construct: whole, on cells; DiscoveRx PathHunter cell line; any reporter tag on the receptor is not described; also called CXCR1 receptor; CXCR1-U2OS
T1 sequence (looked up): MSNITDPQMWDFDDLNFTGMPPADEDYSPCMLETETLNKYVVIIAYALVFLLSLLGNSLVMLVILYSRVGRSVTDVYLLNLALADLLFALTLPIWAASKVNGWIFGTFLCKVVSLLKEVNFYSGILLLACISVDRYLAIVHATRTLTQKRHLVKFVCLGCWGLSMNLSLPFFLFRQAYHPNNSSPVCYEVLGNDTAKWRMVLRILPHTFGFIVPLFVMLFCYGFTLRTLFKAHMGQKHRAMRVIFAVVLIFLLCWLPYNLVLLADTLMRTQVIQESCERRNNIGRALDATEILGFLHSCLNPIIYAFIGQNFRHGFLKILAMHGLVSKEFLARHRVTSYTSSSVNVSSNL

B1: VH4-34+CDR3-IL8_CDR1 Cow / VL1-51 S2A, T5N, P8S, A12G, A13S, P14L, K46R, L47T, D51G, N52D, N53T IgG (antibody)
VH: QVQLQQWGAGLLKPSETLSLTCTASGFSLSDKAVGWIRQPPGKGLEWIGEINHSGSTNYNPSLKSRVTISVDTSKNQFSLKLSSVTAADTAVYYCTSVHQETKKYQSPRSAKELRCQCIKTYSKPFHPKFIKELRVIESGPHCANTEIIVKLSDGRELCLDPKENWVQRVVEKFLKRAENSGSGSYTYNYEWHVDVWGQGLLVTVSSAS
light: QAVLNQPSSVSGSLGQKVTISCSGSSSNIGNNYVSWYQQLPGTAPRTLIYGDTKRPSGIPDRFSGSKSGTSATLGITGLQTGDEADYYCASAEDSSSNAVFGSGTTLTVLGQPKAAPSVTLFPPSSEELQANKATLVCLISDFYPGAVTVAWKADSSPVKAGVETTTPSKQSNNKYAASSYLSLTPEQWKSHRSYSCQVTHEGSTVEKTVAPTECS
B2: VH4-34+CDR3-IL8_CDR1 G31D,Y32K_CDR2 E50S / VL1-51 S2A, T5N, P8S, A12G, A13S, P14L, D51G, N52D, N53T IgG (antibody)
VH: B1 VH with T23A, A24V, S25Y, F27G, L29F, A33Y, V34W, G35S, E50S
light: B1 light with R46K, T47L
B3: VH4-34+CDR3-IL8_CDR1 G31D,Y32K / VL1-51 S2A, T5N, P8S, A12G, A13S, P14L, K46R, L47T, D51G, N52D, N53T IgG (antibody)
VH: B1 VH with T23A, A24V, S25Y, F27G, L29F, A33Y, V34W, G35S
light: B1 light
notes: nt HC 434, LC 486
B4: VH4-34+CDR3-IL8_CDR1-Cow_CDR2-Cow / VL1-51 S2A, T5N, P8S, A12G, A13S, P14L IgG (antibody)
VH: B1 VH with I48L, E50S, N52D, H53T, S54G, S56N, N58G
light: B1 light with R46K, T47L, G51D, D52N, T53N
notes: also called BID 36; VH4-34 MutB IL-8 CDR1cow CDR2cow
B5: VH4-34+CDR3-IL8_CDR1-Cow_CDR2-E50S_Q5RQ6E / VL1-51 I29V, N32G, K46R, L47T, D51G, N52D, N53T IgG (antibody)
VH: QVQLREWGAGLLKPSETLSLTCTASGFSLSDKAVGWIRQPPGKGLEWIGSINHSGSTNYNPSLKSRVTISVDTSKNQFSLKLSSVTAADTAVYYCTSVHQETKKYQSPRSAKELRCQCIKTYSKPFHPKFIKELRVIESGPHCANTEIIVKLSDGRELCLDPKENWVQRVVEKFLKRAENSGSGSYTYNYEWHVDVWGQGLLVTVSS
light: B1 light with A2S, N5T, S8P, G12A, S13A, L14P, I29V, N32G
B6: VH4-34+CDR3-IL8_CDR1-Cow_Q5RQ6E / VL1-51 S2A, T5N, P8S, A12G, A13S, P14L, K46R, L47T, D51G, N52D, N53T, K54S, P56A IgG (antibody)
VH: B5 VH with S50E
light: B1 light with K54S, P56A
B7: VH4-34+CDR3-IL8_CDR1-G31DY32K_CDR2-E50S_Q5RQ6E / VL1-51 S2A, T5N, P8S, A12G, A13S, P14L, D51G, N52D, N53T IgG (antibody)
VH: B5 VH with T23A, A24V, S25Y, F27G, L29F, A33Y, V34W, G35S
light: B1 light with R46K, T47L
B8: VH4-34+CDR3-IL8_CDR2-E50S_Q5RQ6E / VL1-51 S2A, T5N, P8S, A12G, A13S, P14L, K46R, L47T, D51G, N52D, N53T, K54S, P56A IgG (antibody)
VH: B5 VH with T23A, A24V, S25Y, F27G, L29F, D31G, K32Y, A33Y, V34W, G35S
light: B1 light with K54S, P56A
B9: VH4-34+CDR3-IL8_CDR1 Cow_CDR2 E50S / VL1-51 S2A, T5N, P8S, A12G, A13S, P14L IgG (antibody)
VH: B1 VH with E50S
light: B1 light with R46K, T47L, G51D, D52N, T53N
B10: VH4-34+CDR3-IL8_CDR1-G31DY32K_CDR2-E50S_Q5RQ6E / VL1-51 S2A, T5N, P8S, A12G, A13S, P14L, K46R, L47T, D51G, N52D, N53T, K54S, P56A IgG (antibody)
VH: B5 VH with T23A, A24V, S25Y, F27G, L29F, A33Y, V34W, G35S
light: B1 light with K54S, P56A
B11: VH4-34+CDR3-IL8_CDR1 Cow / VL1-51 S2A, T5N, P8S, A12G, A13S, P14L, D51G, N52D, N53T IgG (antibody)
VH: B1 VH
light: B1 light with R46K, T47L
B12: VH4-34+CDR3-IL8 / VL1-51 S2A, T5N, P8S, A12G, A13S, P14L, D51G, N52D, N53T IgG (antibody)
VH: B1 VH with T23A, A24V, S25Y, F27G, L29F, D31G, K32Y, A33Y, V34W, G35S
light: B1 light with R46K, T47L
notes: nt HC 430, LC 444
B13: VH4-34+CDR3-IL8_CDR1-Cow / VL1-51 S2A, T5N, P8S, A12G, A13S, P14L IgG (antibody)
VH: B1 VH
light: B1 light with R46K, T47L, G51D, D52N, T53N
notes: also called BID 34
B14: VH4-34+CDR3-IL8_CDR1-Cow_Q5RQ6E / VL1-51 S2A, T5N, P8S, A12G, A13S, P14L, K46R, L47T, D51G, N52D, N53T IgG (antibody)
VH: B5 VH with S50E
light: B1 light
notes: also called BID 43; VH4-34 MutF IL-8 5R6E CD1cow
B15: VH4-34+CDR3-IL8_CDR1 G31D,Y32K / VL1-51 S2A, T5N, P8S, A12G, A13S, P14L IgG (antibody)
VH: B1 VH with T23A, A24V, S25Y, F27G, L29F, A33Y, V34W, G35S
light: B1 light with R46K, T47L, G51D, D52N, T53N
B16: VH4-34+CDR3-IL8_CDR1-Cow_CDR2-E50S_Q5RQ6E / VL1-51 S2A, T5N, P8S, A12G, A13S, P14L, D51G, N52D, N53T IgG (antibody)
VH: B5 VH
light: B1 light with R46K, T47L
B17: VH4-34+CDR3-IL8_CDR1-Cow_CDR2-Cow_Q5RQ6E / VL1-51 S2A, T5N, P8S, A12G, A13S, P14L, K46R, L47T, D51G, N52D, N53T, K54S, P56A IgG (antibody)
VH: B5 VH with I48L, N52D, H53T, S54G, S56N, N58G
light: B1 light with K54S, P56A

Legend:
CXCR1 [1] = biological target: T1, CXCR1; assay: flow cytometry, supernatant at 5 nM IgG
CXCR1 [2] = biological target: T1, CXCR1; assay: flow cytometry, supernatant at 5 nM IgG; remark: listed apart in the source

Row | Binder | Specific Binding (CXCR1-Cell median AFU / Parental Cell median AFU) (CXCR1 [1]) | Specific Binding (CXCR1-Cell median AFU / Parental Cell median AFU) (CXCR1 [2])
1 | B1 | 10 | –
2 | B2 | 17 | –
3 | B3 | 15 | –
4 | B4 | 11 | –
5 | B5 | – | 1
6 | B6 | – | 3
7 | B7 | – | 1
8 | B8 | – | 1
9 | B9 | 5 | –
10 | B10 | – | 3
11 | B11 | 4 | –
12 | B12 | 3 | –
13 | B13 | 4 | –
14 | B14 | – | 10
15 | B15 | 4 | –
16 | B16 | – | 2
17 | B17 | – | 2
